Results as given in article doi:10.1101/430835 (bioRxiv, 2019).
Several values for one entry are separate records, joined by “and”; a condition that tells them apart may be missing. Equal values may be shown once.

B1: bovine ADP/ATP carrier protein isoform 1 (AAC1) (natural protein)
chain: SDQALSFLKDFLAGGVAAAISKTAVAPIERVKLLLQVQHASKQISAEKQYKGIIDCVVRIPKEQGFLSFWRGNLANVIRYFPTQALNFAFKDKYKQIFLGGVDRHKQFWRYFAGNLASGGAAGATSLCFVYPLDFARTRLAADVGKGAAQREFTGLGNCITKIFKSDGLRGLYQGFNVSVQGIIIYRAAYFGVYDTAKGMLPDPKNVHIIVSWMIAQTVTAVAGLVSYPFDTVRRRMMMQSGRKGADIMYTGTVDCWRKIAKDEGPKAFFKGAWSNVLRGMGGAFVLVLYDEIKKFV
B2: Uncoupling protein 2 (UCP2) (natural protein, human, UniProt P55851 1-309, looked up)
chain: MVGFKATDVPPTATVKFLGAGTAACIADLITFPLDTAKVRLQIQGESQGPVRATASAQYRGVMGTILTMVRTEGPRSLYNGLVAGLQRQMSFASVRIGLYDSVKQFYTKGSEHASIGSRLLAGSTTGALAVAVAQPTDVVKVRFQAQARAGGGRRYQSTVNAYKTIAREEGFRGLWKGTSPNVARNAIVNCAELVTYDLIKDALLKANLMTDDLPCHFTSAFGAGFCTTVIASPVDVVKTRYMNSALGQYSSAGHCALTMLQKEGPRAFYKGFMPSFLRLGSWNVVMFVTYEQLKRALMAACTSREAPF

Target: the molecule itself
Assay: native gel or EMSA

| Protein | stoichiometry N |
| --- | --- |
| B1 | 2 |
| B2 | 2 and 4 |
